Laboratory results from paper PMC10850359, “A mediator of OsbZIP46 deactivation and degradation negatively regulates seed dormancy in rice”.

T1: His::ABI5 (Oryza sativa (rice), UniProt Q8RZ35 1-388)
T1 sequence: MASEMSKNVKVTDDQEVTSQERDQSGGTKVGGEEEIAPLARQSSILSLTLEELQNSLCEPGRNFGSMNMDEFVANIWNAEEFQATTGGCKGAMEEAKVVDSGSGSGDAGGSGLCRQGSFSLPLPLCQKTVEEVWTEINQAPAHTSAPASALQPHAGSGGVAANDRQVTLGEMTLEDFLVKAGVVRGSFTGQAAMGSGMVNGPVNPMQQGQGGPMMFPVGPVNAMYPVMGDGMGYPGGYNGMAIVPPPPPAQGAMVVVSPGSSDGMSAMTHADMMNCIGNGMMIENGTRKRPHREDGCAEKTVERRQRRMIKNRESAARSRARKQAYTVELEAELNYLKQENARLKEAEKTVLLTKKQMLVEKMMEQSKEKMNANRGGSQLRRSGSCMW


Biological target: T1, His::ABI5
Assay: EMSA; Beyotime Chemiluminescent EMSA Kit; 2 ug His::ABI5, 1 uL biotin probe (1 ng), 25 C, 20 min; unlabeled probe (1 ng) as competitor; buffer, salt and pH not stated
Conditions: protein: recombinant; tags: His (pET28a); chain copies: 2; label: biotin; blunt

Binder | binding result
EMSA-EM1-bio (dsDNA) DNA 1: CATAGCTTGCGCACGTACGTGTCGCGCTCCGGCGG DNA 2: CCGCCGGAGCGCGACACGTACGTGCGCAAGCTATG | binds
EMSA-LEA3-bio (dsDNA) DNA 1: GATGACTTGGCATGCTCACGTGGCATTTTTTTTGGTCTAA DNA 2: TTAGACCAAAAAAAATGCCACGTGAGCATGCCAAGTCATC | binds
